Test results reported in PMC6853915 (Scientific Reports, 2019).

Legend:
Conditions in all cases: both partners purified
[1] = biological target: T1, 17beta-hydroxysteroid dehydrogenase type 10 (human, UniProt Q99714 1-261); experiment: SPR; cypD held on immobilised Ab(cypD); 100 nM 17β-HSD10 flowed for 7 min; 10 mM HEPES, 200 μg/ml BSA, 5 mM Na+, pH 7.4 or 7.8, with K+ (up to 140 mM), Mg2+ or Ca2+ (up to 2.5 mM) alone or K+ and Mg2+ combined; 25 °C; reference channel without cypD
T1 construct: the oligomeric state was not measured; also called 17β-HSD10; 17beta-hydroxysteroide dehydrogenase 10; source: bought: Fitzgerald, USA (human, recombinant)
T1 sequence (looked up): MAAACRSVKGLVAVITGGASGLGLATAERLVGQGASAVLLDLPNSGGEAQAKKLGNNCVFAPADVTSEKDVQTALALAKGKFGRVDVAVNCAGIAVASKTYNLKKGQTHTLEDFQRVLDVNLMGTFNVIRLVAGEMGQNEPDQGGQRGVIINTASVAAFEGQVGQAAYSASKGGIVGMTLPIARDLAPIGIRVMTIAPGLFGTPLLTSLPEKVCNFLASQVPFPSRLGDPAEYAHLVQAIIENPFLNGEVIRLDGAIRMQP

amyloid-β peptide 1–40 = biological target: T2, amyloid-β peptide 1–40 (human, UniProt P05067 672-711); experiment: SPR; cypD held on immobilised Ab(cypD); 17β-HSD10 (100 nM), Aβ1–40 or Aβ1–42 (50-1000 nM, mostly 500 nM) or their mixtures, incubated at 37 °C beforehand (1 hour; or Aβ alone 0-180 min, then 10 min with 17β-HSD10), flowed for 7 or 10 min; HEPES_FINAL (10 mM HEPES, 200 μg/ml BSA, 5 mM Na+, 15 mM K+, 0.1 mM Mg2+, pH 7.4); 25 °C
T2 construct: amyloid-β peptide, residues 1-40 (40 aa), human, cut product of the amyloid precursor protein; numbers count on: the Aβ peptide; The authors take it to stay monomeric under the conditions used; also called Aβ1–40; Aβ_(1–40); source: synthetic peptide; bought: AnaSpec, USA

amyloid-β peptide 1–42 = biological target: T3, amyloid-β peptide 1–42 (human, UniProt P05067 672-713); experiment: as above
T3 construct: amyloid-β peptide, residues 1-42 (42 aa), human, cut product of the amyloid precursor protein; numbers count on: the Aβ peptide; Incubated at 37 °C before injection; the authors take it to form oligomers of a size that was not measured; also called Aβ1–42; Aβ_(1–42); source: synthetic peptide; bought: AnaSpec, USA

Measured: binding result

T3 sequence (P05067 672-713): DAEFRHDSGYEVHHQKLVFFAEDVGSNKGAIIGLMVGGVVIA
T2 sequence (P05067 672-711): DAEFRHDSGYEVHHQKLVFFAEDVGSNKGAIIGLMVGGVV

B1: cyclophilin D (enzyme)
chain: not shown
notes: cyclophilin D (cypD), human, recombinant; Held on the chip through an immobilised antibody against cypD; also called cypD; source: bought: Fitzgerald, USA (human, recombinant)
binds: all assays above
